Values of other authors in paper PMC2737186.

Target: Cys1 (UniProt position 252, VVKNKCLAEGT)

Mtu RecA intein (form studied by Shingledecker, Jiang and Paulus 2000) (Mycobacterium tuberculosis)
pKa: 8.2
